Data published in the supplement of paper PMC5998384.

Legend:
HeLa Kyoto [1] = experiment: solubility in G1/S (NP-40 vs SDS abundance) (log2 ratio); higher = more soluble; settings: cell cycle stage: G1/S
HeLa Kyoto [2] = experiment: melting temperature (median over replicates), in situ; higher = more thermally stable
HeLa Kyoto [3] = experiment: solubility change mitosis vs G1/S (difference of NP-40 vs SDS log2 ratios) (log2 ratio difference); higher = more soluble in mitosis
HeLa Kyoto [4] = experiment: thermal stability score vs G1/S (z-score of summed log2 fold changes over temperatures); higher = more thermally stable than in G1/S
[5] = cell cycle stage: early G1 (4.5 h after nocodazole release)
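For melting temperature (median over replicates), in situ in this document: HeLa Kyoto cells synchronized by double thymidine or nocodazole block, proteins quantified by TMT10plex mass spectrometry, three independent biological replicates.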
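For solubility change mitosis vs G1/S (difference of NP-40 vs SDS log2 ratios) in this document: synchronized HeLa Kyoto cells (double thymidine block for G1/S, nocodazole release for mitosis), protein amounts in NP-40 versus SDS lysates quantified by mass spectrometry, three biological replicates.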
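For solubility in G1/S (NP-40 vs SDS abundance) in this document: HeLa Kyoto cells arrested at G1/S by double thymidine block, proteins quantified by TMT10plex mass spectrometry in mild NP-40 versus SDS extracts, three biological replicates.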
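For thermal stability score vs G1/S (z-score of summed log2 fold changes over temperatures) in this document: synchronized HeLa Kyoto cells, proteins quantified by TMT10plex mass spectrometry, three biological replicates, mitosis taken 0.5 h after nocodazole release, G1/S directly after double thymidine block.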

Sequence | solubility in G1/S (log2) (HeLa Kyoto [1]) | melting temperature (HeLa Kyoto [2]; cell cycle stage: G1/S) [°C] | melting temperature (HeLa Kyoto [2]; cell cycle stage: mitosis) [°C] | solubility change mitosis (log2) (HeLa Kyoto [3]) | thermal stability score (HeLa Kyoto [4]; [5]) | thermal stability score (HeLa Kyoto [4]; cell cycle stage: mitosis)
MAASVAAAARRLRRAIRRSPAWRGLSHRPLSSEPPAAKASAVRAAFLNFFRDRHGHRLVPSASVRPRGDPSLLFVNAGMNQFKPIFLGTVDPRSEMAGFRRVANSQKCVRAGGHHNDLEDVGRDLSHHTFFEMLGNWAFGGEYFKEEACNMAWELLTQVYGIPEERLWISYFDGDPKAGLDPDLETRDIWLSLGVPASRVLSFGPQENFWEMGDTGPCGPCTEIHYDLAGGVGAPQLVELWNLVFMQHNREADGSLQPLPQRHVDTGMGLERLVAVLQGKHSTYDTDLFSPLLNAIQQGCRAPPYLGRVGVADEGRTDTAYRVVADHIRTLSVCISDGIFPGMSGPPLVLRRILRRAVRFSMEILKAPPGFLGSLVPVVVETLGDAYPELQRNSAQIANLVSEDEAAFLASLERGRRIIDRTLRTLGPSDMFPAEVAWSLSLCGDLGLPLDMVELMLEEKGVQLDSAGLERLAQEEAQHRARQAEPVQKQGLWLDVHALGELQRQGVPPTDDSPKYNYSLRPSGSYEFGTCEAQVLQLYTEDGTAVASVGKGQRCGLLLDRTNFYAEQGGQASDRGYLVRAGQEDVLFPVARAQVCGGFILHEAVAPECLRLGDQVQLHVDEAWRLGCMAKHTATHLLNWALRQTLGPGTEQQGSHLNPEQLRLDVTTQTPLTPEQLRAVENTVQEAVGQDEAVYMEEVPLALTAQVPGLRSLDEVYPDPVRVVSVGVPVAHALDPASQAALQTSVELCCGTHLLRTGAVGDLVIIGDRQLSKGTTRLLAVTGEQAQQARELGQSLAQEVKAATERLSLGSRDVAEALRLSKDIGRLIEAVETAVMPQWQRRELLATVKMLQRRANTAIRKLQMGQAAKKTQELLERHSKGPLIVDTVSAESLSVLVKVVRQLCEQAPSTSVLLLSPQPMGKVLCACQVAQGAMPTFTAEAWALAVCSHMGGKAWGSRVVAQGTGSTTDLEAALSIAQTYALSQL [AARS2] | -0.0312 | 49.9 | 50 | -0.0878 | -0.609 | 0.833
MAASVVCRAATAGAQVLLRARRSPALLRTPALRSTATFAQALQFVPETQVSLLDNGLRVASEQSSQPTCTVGVWIDVGSRFETEKNNGAGYFLEHLAFKGTKNRPGSALEKEVESMGAHLNAYSTREHTAYYIKALSKDLPKAVELLGDIVQNCSLEDSQIEKERDVILREMQENDASMRDVVFNYLHATAFQGTPLAQAVEGPSENVRKLSRADLTEYLSTHYKAPRMVLAAAGGVEHQQLLDLAQKHLGGIPWTYAEDAVPTLTPCRFTGSEIRHRDDALPFAHVAIAVEGPGWASPDNVALQVANAIIGHYDCTYGGGVHLSSPLASGAVANKLCQSFQTFSICYAETGLLGAHFVCDRMKIDDMMFVLQGQWMRLCTSATESEVARGKNILRNALVSHLDGTTPVCEDIGRSLLTYGRRIPLAEWESRIAEVDASVVREICSKYIYDQCPAVAGYGPIEQLPDYNRIRSGMFWLRF [UQCRC1] | 0.324 | 55.3 | 54.2 | -0.0237 | -0.504 | -3.84
MAATAAAVVAEEDTELRDLLVQTLENSGVLNRIKAELRAAVFLALEEQEKVENKTPLVNESLKKFLNTKDGRLVASLVAEFLQFFNLDFTLAVFQPETSTLQGLEGRENLARDLGIIEAEGTVGGPLLLEVIRRCQQKEKGPTTGEGALDLSDVHSPPKSPEGKTSAQTTPSKIPRYKGQGKKKTSGQKAGDKKANDEANQSDTSVSLSEPKSKSSLHLLSHETKIGSFLSNRTLDGKDKAGLCPDEDDMEGDSFFDDPIPKPEKTYGLRKEPRKQAGSLASLSDAPPLKSGLSSLAGAPSLKDSESKRGNTVLKDLKLISDKIGSLGLGTGEDDDYVDDFNSTSHRSEKSEISIGEEIEEDLSVEIDDINTSDKLDDLTQDLTVSQLSDVADYLEDVA [FGFR1OP] | 0.156 | 52 | 52.4 | -0.0261 | -0.228 | -0.703
MAATAAEAVASGSGEPREEAGALGPAWDESQLRSYSFPTRPIPRLSQSDPRAEELIENEEPVVLTDTNLVYPALKWDLEYLQENIGNGDFSVYSASTHKFLYYDEKKMANFQNFKPRSNREEMKFHEFVEKLQDIQQRGGEERLYLQQTLNDTVGRKIVMDFLGFNWNWINKQQGKRGWGQLTSNLLLIGMEGNVTPAHYDEQQNFFAQIKGYKRCILFPPDQFECLYPYPVHHPCDRQSQVDFDNPDYERFPNFQNVVGYETVVGPGDVLYIPMYWWHHIESLLNGGITITVNFWYKGAPTPKRIEYPLKAHQKVAIMRNIEKMLGEALGNPQEVGPLLNTMIKGRYN [HIF1AN] | 0.273 | 52.3 | 51.7 | -0.0585 | 0.637 | 1.68
MAATALLEAGLARVLFYPTLLYTLFRGKVPGRAHRDWYHRIDPTVLLGALPLRSLTRQLVQDENVRGVITMNEEYETRFLCNSSQEWKRLGVEQLRLSTVDMTGIPTLDNLQKGVQFALKYQSLGQCVYVHCKAGRSRSATMVAAYLIQVHKWSPEEAVRAIAKIRSYIHIRPGQLDVLKEFHKQITARATKDGTFVISKT [PTPMT1] | -0.268 | 51.8 | 51.2 | -0.0676 | -0.395 | -0.764
